# In patent US9327008B2, “Cell-permeant peptide-based inhibitor of kinases” (Purdue Research Foundation, priority 2008, dated 2016):
# How the values were obtained:
# Format in all cases: biochemical
# ROCK-I = target: T1, ROCK-I (Homo sapiens, UniProt Q13464); assay: Millipore radiometric kinase activity assay, ROCK-I (h); settings: for ROCK-1 Kinase Activity: peptide inhibitor 300 μM, SD of 2 samples
# T1 construct: purchased Millipore (radiometric assay service)
# Protocol: (§1) A commercial radiometric assay service (Millipore, Billerica, Mass.) was used to test the specificity and potency of peptides containing a coupled transduction domain and therapeutic domain, hereinafter “complete peptides”). In these assays, if the kinase is not inhibited by an inhibitor peptide, a positively charged substrate is phosphorylated with a radiolabeled phosphate group from an ATP.
# (§2) In a final reaction volume of 25 μL, ROCK-I (b) (5-10 mU) is incubated with 8 mM MOPS pH 7.0, 0.2 mM EDTA, 30 μM […] [SEQ ID NO: 63], 10 mM MgAcetate and [γ-^33P-ATP] (specific activity approx. 500 cpm/pmol, concentration as required). The reaction is initiated by the addition of the MgATP mix. After incubation for 40 minutes at room temperature, the reaction is stopped by the addition of 5 μL of a 3% phosphoric acid solution. 10 μL of the reaction is then spotted onto a P30 filtermat and washed three times for 5 minutes in 75 mM phosphoric acid and once in methanol prior to drying and scintillation counting.
# (§3) IC50 values for inhibitor peptides were determined using Millipore's IC50Profiler Express service. The IC50 value was estimated from a 10-point curve of one-half log dilutions. For peptides tested for specificity, the concentration of the peptides that inhibited approximately 95% of MK2 activity was chosen to profile against a battery of kinases related to MK2, cell viability, or human disease from MilliporeKinaseProfiler service. In both assays, compounds were supplied in dimethylsulfoxide (DMSO). Every kinase activity measurement was conducted in duplicate.
# (§4) Therapeutic inhibitor peptides were assayed for activity against human kinases related to MK2, cell viability, or human disease. The assays were performed using concentrations of therapeutic inhibitor peptides that yielded 2% to 8% of normal MK2 activity. Error is reported as the standard deviation between 2 samples, and “c” is rat AMPK whereas all other kinases used are human kinases.
# (§5) Additional therapeutic inhibitor peptide variants were assayed for activity against several human kinases representative of several families of kinases. These kinases included: MK2; MK3; CaMKI (calcium/calmodulin-dependent protein kinase); PRAK (p38 regulated/activated protein kinase, also known as mitogen-activated protein kinase activated protein kinase 5 (MAPKAPK5)); SAPK2a (p38α); IRAK4 (IL-1 receptor (IL-1R)-associated kinase); MLCK (myosin light chain kinase); PKBβ (protein kinase B); PCKδ (protein kinase C); and ROCK-I (Rho-associated serine/threonine kinase).
# SAPK2a (p38α) = target: T2, SAPK2a (p38α) (Homo sapiens, UniProt Q16539); assay: Millipore radiometric kinase activity assay, SAPK2a (h); settings: for SAPK2a (p38α) Kinase Activity: peptide inhibitor 300 μM, SD of 2 samples
# T2 construct: purchased Millipore (radiometric assay service)
# T2 sequence (Q16539 whole entry): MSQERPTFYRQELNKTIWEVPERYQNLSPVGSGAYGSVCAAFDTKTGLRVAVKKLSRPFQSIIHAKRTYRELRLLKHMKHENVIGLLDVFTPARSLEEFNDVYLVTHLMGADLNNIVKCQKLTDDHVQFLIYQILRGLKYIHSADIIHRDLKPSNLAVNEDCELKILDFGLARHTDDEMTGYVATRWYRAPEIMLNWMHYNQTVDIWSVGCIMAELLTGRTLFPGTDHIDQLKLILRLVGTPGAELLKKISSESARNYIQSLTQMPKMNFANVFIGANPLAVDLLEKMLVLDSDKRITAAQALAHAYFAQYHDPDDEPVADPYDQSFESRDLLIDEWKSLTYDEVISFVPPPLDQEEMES
# Protocol: as §1
# (§6) In a final reaction volume of 25 μL, SAPK2a (h) (5-10 mU) is incubated with 25 mM Tris pH 7.5, 0.02 mM EGTA, 0.33 mg/mL myelin basic protein, 10 mM MgAcetate and [γ-^33P-ATP] (specific activity approx. 500 cpm/pmol, concentration as required). The reaction is initiated by the addition of the MgATP mix. After incubation for 40 minutes at room temperature, the reaction is stopped by the addition of 5 μL of a 3% phosphoric acid solution. 10 μL of the reaction is then spotted onto a P30 filtermat and washed three times for 5 minutes in 75 mM phosphoric acid and once in methanol prior to drying and scintillation counting.
# as §3, §4, §5
# MK3 = target: T3, MK3 (Homo sapiens, UniProt Q16644); assay: Millipore radiometric kinase activity assay, MK3; settings: SD of 2 samples
# T3 construct: purchased Millipore (assay service)
# T3 sequence (Q16644 whole entry): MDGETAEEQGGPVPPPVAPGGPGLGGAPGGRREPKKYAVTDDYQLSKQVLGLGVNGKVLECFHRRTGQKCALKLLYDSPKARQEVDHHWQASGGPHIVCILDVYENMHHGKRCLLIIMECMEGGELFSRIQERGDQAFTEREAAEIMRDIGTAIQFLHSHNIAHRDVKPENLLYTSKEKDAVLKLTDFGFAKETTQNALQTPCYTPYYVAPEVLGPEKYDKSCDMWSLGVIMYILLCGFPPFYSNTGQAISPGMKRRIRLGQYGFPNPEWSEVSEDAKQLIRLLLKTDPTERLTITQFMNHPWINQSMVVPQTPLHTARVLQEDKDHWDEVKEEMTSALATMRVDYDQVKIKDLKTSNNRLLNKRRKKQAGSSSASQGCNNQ
# Protocol: as §1, §3, §5
# PKCδ = target: T4, PKCδ (Homo sapiens, UniProt Q05655); assay: Millipore radiometric kinase activity assay, PKCδ (h); settings: for PKCδ Kinase Activity: peptide inhibitor 300 μM, SD of 2 samples
# T4 construct: purchased Millipore (radiometric assay service)
# T4 sequence (Q05655 whole entry): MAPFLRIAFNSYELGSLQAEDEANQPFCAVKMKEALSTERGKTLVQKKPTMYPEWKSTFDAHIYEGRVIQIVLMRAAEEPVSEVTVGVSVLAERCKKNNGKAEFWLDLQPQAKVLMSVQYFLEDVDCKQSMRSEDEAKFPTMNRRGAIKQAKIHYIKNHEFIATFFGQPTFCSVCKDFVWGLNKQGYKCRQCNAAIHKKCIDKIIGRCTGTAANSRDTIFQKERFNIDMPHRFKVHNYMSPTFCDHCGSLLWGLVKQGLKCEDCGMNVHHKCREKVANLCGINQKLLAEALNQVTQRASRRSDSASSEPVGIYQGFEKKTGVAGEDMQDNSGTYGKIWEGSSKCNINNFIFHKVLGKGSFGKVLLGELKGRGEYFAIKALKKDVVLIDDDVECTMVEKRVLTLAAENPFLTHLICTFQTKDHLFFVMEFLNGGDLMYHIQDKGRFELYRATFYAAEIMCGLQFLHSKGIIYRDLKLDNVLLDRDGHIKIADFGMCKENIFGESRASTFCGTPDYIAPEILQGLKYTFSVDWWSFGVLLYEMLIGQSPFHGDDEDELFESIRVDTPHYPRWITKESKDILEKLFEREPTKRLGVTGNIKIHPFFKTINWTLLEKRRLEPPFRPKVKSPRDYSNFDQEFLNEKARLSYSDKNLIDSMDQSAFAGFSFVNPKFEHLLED
# Protocol: as §1
# as §2, with “PKCδ (h)” for “ROCK-I (b)”, “20” for “8”, “HEPES” for “MOPS”, “7.4, 0.03% Triton X-100, 0.1 mg/mL phosphatidylserine, 10 μg/mL diacylglycerol, 50” for “7.0, 0.2 mM EDTA, 30”, “61],” for “63],”
# as §3, §4, §5
# IRAK4 = target: T5, IRAK4 (Homo sapiens, UniProt Q9NWZ3); assay: Millipore radiometric kinase activity assay, IRAK4 (h)
# T5 construct: purchased Millipore (assay service)
# T5 sequence (Q9NWZ3 1-460): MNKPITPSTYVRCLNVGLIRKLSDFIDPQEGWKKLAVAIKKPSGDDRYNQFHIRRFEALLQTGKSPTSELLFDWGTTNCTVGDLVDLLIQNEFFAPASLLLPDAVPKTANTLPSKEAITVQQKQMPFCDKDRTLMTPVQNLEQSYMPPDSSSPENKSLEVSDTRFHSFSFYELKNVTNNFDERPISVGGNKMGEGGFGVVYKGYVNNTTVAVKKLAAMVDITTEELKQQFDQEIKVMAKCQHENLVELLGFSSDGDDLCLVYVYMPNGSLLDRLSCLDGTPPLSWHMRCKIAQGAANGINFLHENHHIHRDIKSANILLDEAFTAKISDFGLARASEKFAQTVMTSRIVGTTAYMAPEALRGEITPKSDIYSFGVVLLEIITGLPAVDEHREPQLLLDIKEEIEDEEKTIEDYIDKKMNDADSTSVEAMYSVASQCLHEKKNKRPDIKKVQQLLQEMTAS
# Protocol: as §1
# as §6, with “μL, IRAK4” for “μL, SAPK2a”, “with 8” for “with 25”, “mM MOPS” for “mM Tris”, “pH 7.0, 0.2” for “pH 7.5, 0.02”, “mM EDTA,” for “mM EGTA,”, “10 μl” for “10 μL”
# as §3, §4, §5
# [1] = peptide 100 μM, listed as KAFAKLAARLYRLARQLGVAA
# [2] = peptide 30 μM, listed as WLRRIKAWLRRI-
# T1 sequence (Q13464 whole entry): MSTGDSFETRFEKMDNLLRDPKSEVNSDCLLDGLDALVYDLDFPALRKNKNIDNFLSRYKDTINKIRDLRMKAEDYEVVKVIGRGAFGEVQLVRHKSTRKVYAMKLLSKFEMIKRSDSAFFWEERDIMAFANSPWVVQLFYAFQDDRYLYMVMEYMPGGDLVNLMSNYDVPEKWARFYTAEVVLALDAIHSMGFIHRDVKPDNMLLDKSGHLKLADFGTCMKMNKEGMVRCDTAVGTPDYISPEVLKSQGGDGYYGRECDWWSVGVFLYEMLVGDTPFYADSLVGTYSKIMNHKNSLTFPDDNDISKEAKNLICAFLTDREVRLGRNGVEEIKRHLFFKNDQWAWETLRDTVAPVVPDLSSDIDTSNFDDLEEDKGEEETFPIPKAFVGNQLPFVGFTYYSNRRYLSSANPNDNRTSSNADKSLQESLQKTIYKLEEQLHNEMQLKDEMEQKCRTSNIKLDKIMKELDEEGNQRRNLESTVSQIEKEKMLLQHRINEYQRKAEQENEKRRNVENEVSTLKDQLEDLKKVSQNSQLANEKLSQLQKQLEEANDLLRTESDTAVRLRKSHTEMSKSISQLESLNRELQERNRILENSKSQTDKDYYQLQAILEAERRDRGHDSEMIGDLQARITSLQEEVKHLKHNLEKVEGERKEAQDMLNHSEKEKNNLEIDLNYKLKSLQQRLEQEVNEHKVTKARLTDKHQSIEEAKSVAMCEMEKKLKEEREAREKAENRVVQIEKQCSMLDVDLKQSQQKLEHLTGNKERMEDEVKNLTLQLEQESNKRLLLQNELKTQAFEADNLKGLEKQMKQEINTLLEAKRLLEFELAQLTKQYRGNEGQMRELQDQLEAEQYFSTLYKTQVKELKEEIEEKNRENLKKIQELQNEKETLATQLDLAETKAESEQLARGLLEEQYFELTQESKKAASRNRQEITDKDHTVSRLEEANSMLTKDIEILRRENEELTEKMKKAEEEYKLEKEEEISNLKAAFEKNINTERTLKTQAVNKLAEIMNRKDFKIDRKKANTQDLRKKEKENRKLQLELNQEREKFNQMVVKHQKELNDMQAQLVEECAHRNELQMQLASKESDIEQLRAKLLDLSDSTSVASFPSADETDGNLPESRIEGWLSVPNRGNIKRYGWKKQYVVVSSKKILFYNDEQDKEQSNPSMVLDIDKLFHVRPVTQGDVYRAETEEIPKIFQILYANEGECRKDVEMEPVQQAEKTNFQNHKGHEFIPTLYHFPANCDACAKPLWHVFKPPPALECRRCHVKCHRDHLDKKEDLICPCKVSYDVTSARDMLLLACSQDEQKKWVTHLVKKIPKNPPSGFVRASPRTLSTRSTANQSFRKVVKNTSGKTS
Sequence,ROCK-1 Kinase Activity (%) (+SD %) (ROCK-I; peptide 100 μM),SAPK2a Kinase Activity (%) (+SD %) (SAPK2a (p38α); peptide 100 μM),MK3 Kinase Activity (MK3; peptide inhibitor 100 μM),PKCδ Kinase Activity (%) (+SD %) (PKCδ; peptide 100 μM),IRAK4 Kinase Activity (%) (+SD %) (IRAK4; peptide 100 μM),ROCK-1 Kinase Activity (ROCK-I),SAPK2a (p38α) Kinase Activity (SAPK2a (p38α)),MK3 Kinase Activity (MK3; peptide inhibitor 300 μM),PKCδ Kinase Activity (PKCδ),also measured
KAFAKLAARLYRKALARQLGVAA,29 (0) %,59 (8) %,17(1) %,24 (3) %,16 (2) %,,,,,ROCK-1 Kinase Activity (%) (+SD %) (ROCK-I; [1]): 29(0) %; SAPK2a Kinase Activity (%) (+SD %) (SAPK2a (p38α); [1]): 59(8) %; PKCδ Kinase Activity (%) (+SD %) (PKCδ; [1]): 24(3) %; IRAK4 Kinase Activity (%) (+SD %) (IRAK4; [1]): 16(2) %
WLRRIKAWLRRIKALNRQLGVAA,25 (2) %,30 (6) %,,40 (2) %,13 (4) %,,,,,ROCK-1 Kinase Activity (%) (+SD %) (ROCK-I; peptide 30 μM): 0(1) %; ROCK-1 Kinase Activity (%) (+SD %) (ROCK-I; [2]): 0 (1) %; SAPK2a Kinase Activity (%) (+SD %) (SAPK2a (p38α); peptide 30 μM): 61(7) %; SAPK2a Kinase Activity (%) (+SD %) (SAPK2a (p38α); [2]): 61 (7) %; MK3 Kinase Activity (MK3; peptide inhibitor 30 μM): 16(2) %; PKCδ Kinase Activity (%) (+SD %) (PKCδ; peptide 30 μM): 11(0) %; PKCδ Kinase Activity (%) (+SD %) (PKCδ; [2]): 11 (0) %; IRAK4 Kinase Activity (%) (+SD %) (IRAK4; peptide 30 μM): 12(1) %; IRAK4 Kinase Activity (%) (+SD %) (IRAK4; [2]): 12 (1) %
YARAAARQARAKALNRQLGVAA,,,,,,95(7) %,100(6) %,19(3) %,105(2) %,"IRAK4 Kinase Activity (IRAK4; peptide inhibitor 300 μM, SD of 2 samples): 68(3) %"
YARAAARQARAKALARQLGVAA,,,,,,27(4) %,66(3) %,5(1) %,101(3) %,
FAKLAARLYRKALARQLGVAA,25(2) %,30(6) %,10(1) %,40(2) %,13(4) %,,,,,"inhibition of SAPK2a activity (in words) (SAPK2a (p38α); Table 5, 100 μM): inhibited activity of SAPK2a"
